# Experimental data published in the DeepSol protein solubility set.
# Test: soluble on expression in E. coli; label from the status in PepcDB or PDB records
row,Sequence,soluble on expression in E. coli
1,MGSDKIHHHHHHYATPEEYYKATGKKITEYHESPMLTKLVEEGKLPPVEQRLPEEPLVVQPVEKVGQFGGTWRRVWKGPSDRWGISKLIEVKLAFWDKEGGKLVPGLAKSWEVLENGRVYIFHLRKGVKWSDGAPYTAHDIVFWVNDIVGNDDITPSKPDWYNIGVKVEALDDYTVKFEFSKPYGLFLLKVPYGGFTGAPAHYLKQFHPKYTPMEEIEKKMVEGVHNTWVDLFNDKNDFLENTELPTLSPWKPITDPTEQFYILERNPYFWAVDIEGNQLPYIDYVRHEYVKNDEVILLKAISGEIDMQWRHIGGLGAGAGNFTLLMENSQSGGYRVLKWIAANGSASRISLNYAHSDEVLRKVFNDVRFRQALSLAINREEINEILFNGLAEPRQASLVSGSPYFDPEWEKAYAEYDPDRANKLLDEMGLKWDDKHEYRLLPDGRPLRFTITVTGQFHVDVWTMVKEYWKQIGVWVEIENLERSLFYERADAGDFDAMVWNMDRAAQPLSSPMVIFPGSENIADFWYIGWSGWISYYIDKNIRGVEPEEVPEGPEPPEVVYRLVDLYYQIASTPDPDKIKELMAEATKIHRENLWMIGTVGEDLSPAIAKNNFRNVPEFLVTDDVLRTPLNAMPMQFFIEQK,not soluble
2,TSITPSSQDICRICHCEGDDESPLITPCHCTGSLHFVHQACLQQWIKSSDTRCCELCKYEFIMETKL,soluble
3,GMASAIIETAIPQSEMTASATSEEGQDPASSAIDGNINTMWHTKWNGSDALPQSLSVNLGKARKVSSIAITPRTSGNNGFITKYEIHAINNGVETLVAEGTWEENNLVKTVTFDSPIDAEEIKITAIQGVGGFASIAELNVYE,soluble
4,MSLKDKFGREIRSLRISITNKCNLQCFYCHREGHDSNNDRYMTPEEIGIIAKTSTKFGVKKIKISGGEPLLRKDVCEIIENIKDERIKDISLTTNGILLENLAEKLKDAGLNRVNVSLDTLNPELYKKITKFGDVERVINGIKKAIDVSLTPLKVNFLAMSINIKDLPDIMEFCRDIGAILQIIEFIPLKEELKGYYYNISPIENEIKEKADKVITRNFMQNRKKYIVDGLEIEFVRPMDNSEFCMHCTRIRLTYDGYLKPCLLRDDNLVDVLTPLRKGENLEPYFIECINRREPYFKIKEGHHHHHH,soluble
5,ATSDSNMLLNYVPVYVMLPLGVVNVDNVFEDPDGLKEQLLQLRAAGVDGVMVDVWWGIIELKGPKQYDWRAYRSLLQLVQECGLTLQAIMSFHQCGGNVGDIVNIPIPQWVLDIGESNHDIFYTNRSGTRNKEYLTVGVDNEPIFHGRTAIEIYSDYMKSFRENMSDFLESGLIIDIEVGLGPAGELRYPSYPQSQGWEFPGIGEFQCYDKYLKADFKAAVARAGHPEWELPDDAGKYNDVPESTGFFKSNGTYVTEKGKFFLTWYSNKLLNHGDQILDEANKAFLGCKVKLAIKVSGIHWWYKVENHAAELTAGYYNLNDRDGYRPIARMLSRHHAILNFSCLEMRDSEQPSDAKSGPQELVQQVLSGGWREDIRVAGENALPRYDATAYNQIILNARPQGVNNNGPPKLSMFGVTYLRLSDDLLQKSNFNIFKKFVLKMHADQDYCANPQKYNHAITPLKPSAPKIPIEVLLEATKPTLPFPWLPETDMKVDG,soluble
6,IEERMNEYFNWLKQNYIFKELDSSTEITTPFKNHLNDFIRIYADTLPNNEICLSDDGLTINELEMLGIDINTKTRTKLIQNILNQFNLKLVDKEITADVKNESFAQSKHNLIQGILKIYDLTLTTKSNVTNIFYEEVFEFLYDQKIRGLAQVSVSGESGLKYSIDYIVSETKSQPEKLVNFTNNLDFNKITNEAYIYRDIKPNRPSRNKLEPIMLIIVNDVDHPINERAQTVAEHENLEILKWSNKSKIIETL,not soluble
7,MSKGKVCLAYSGGLDTSVILAWLLDQGYEVVAFMANVGQEEDFDAAKEKALKIGACKFVCVDCREDFVKDILFPAVQVNAVYEDVYLLGTSLARPVIAKAQIDVAKQEGCFAVSHGCTGKGNDQIRFELSFYALKPDVKCITPWRMPEFFERFAGRKDLLDYAAQKGIPVAQTKAKPWSTDENQAHISYEAGILEDPDTTPPKDMWKLIVDPMDAPDQPQDLTIDFERGLPVKLTYTDNKTSKEVSVTKPLDVFLAASNLARANGVGRIDIVEDRYINLKSRGCYEQAPLTVLRKAHVDLEGLTLDKEVRQLRDSFVTPNYSRLIYNGFLLHPECEYIRSMIQPSQNSVNGTVRVRLYKGNVIILGRSTKTEKLYDPTESSMDELTGFLPTDTTGFIAIQAIRIKKYGESKKTKGEELTL,soluble
8,MQADPAIRRFAKKRNKRVDRMILDSNYMHTSIDRYFPNESKRRGRPDIIYLLLEMTQESILNHKNQLRTYVHTRNNQVIRISPITRMPKSYNRFIGLFEDLFEKRIITNNGKELLSMEESSLGDLINSIRRDRTILLHPKGEMRKPSEFISNANILIVIGGFSEGDFISDTSFINERYAIFDQELTIWSVANEMVANYERAVGLTLEHHHHHH,soluble
9,YDFIDNPGFDESHSLTEMREAFLSFFEDRDHERIDPYPVAANRWRDDVLLTQASIYDFQPLVTSGTTPPPANPLCISQPCIRMQDIDNVGKTGRHTMAFEMMAHHAFNAREDIEDPEQYAYEGEVYWKNETVQYCDELFEEMGANLDEIVYIEDPWVGGGNAGPAIEVIYRGAELATLVFMSMEQDSDGEYEMKDGNRYSPMDTYIVDTGYGLERWTWMSQGTPTVYEAVYPDMIAFLKDNAGIELTDEEERIVHEAAKLAGRMDI,not soluble
10,GAMAMPMIEYLERFSLKAKINNTTNLDYSRRFLEPFLRGINVVYTPPQSFQSAPRVYRVNGLSRAPASSETFEHDGKKVTIASYFHSRNYPLKFPQLHCLNVGSSIKSILLPIELCSIEEGQALNRKDGATQVANMIKYAATS,soluble
11,MLRMDLQTYQKIYSSLHNFGDVFRLSEEYSRPAGMLATILNQKIVKMTRFKHRRVYSREKELFMKWKQGRSILELAEYTYFPPTLMASLILKNCDFSRKSINWLFKHLDCIENRRLRKEVRKALNADYFFSPRAHEMQCRKGEMGEEIVRKWLDDREIAYCTEAEIRAKGDGKTPDFVLSNPIFIEDHMVSWIESKALFGDDFEHKHYAKKQFREYADIFGEGMVVYWYGFLEDLSSEDEGYLIKDYRFFEGYQEQTDELFNYLVYWLEHHHHHH,not soluble
12,ISGQKEFEEKPLESKEKYQDLFNLIEQAVQIGEIVFDENGRSIDNIILDVNLAYEKHSGLRREQVIGRGFKEIFPIVEQRWLDRYGEVVRTGMGMHFEEYNASLDRWFEVFASPMGSNRFIAVFSDIT,not soluble
13,MQREDILGEALKLLETQGIADTTLEMVAERVNRPLDTLQRFWPDKEAILYDALRYLSQQVDIWRRQLLLDETLSAEQKLLARYSALSECVSNNRYPGCLFIAACTFYPDPTHPIHQLANQQKRAAHDFTHELLTTLEIDDPAMVARQMELVLEGCLSRMLVNRSQADVDTAQRLAEDILRFAQCRQGGALT,soluble
14,MSLQENISVTDSYSTGNAAQAMLEKLLQIYDVKMLVAQLNGVGENHWSAAILKRALANDSAWHRLSEKEFAHLQTLLPKPPEHHPHYAFRFIDLFAGIGGIRRGFESIGGQCVFTSEWNKHAVRTYKANHYCDPATHHFNEDIRDITLSHQEGVSDEAAAEHIRQHIPEHDVLLAGFPCQPFSLAGVSKKNSLGRAHGFACDTQGTLFFDVVRIIDARRPAMFVLENVKNLKSHDKGKTFRIIMQTLDELGYDVADAEDNGPDDPKIIDGKHFLPQHRERIVLVGFRRDLNLKADFTLRDISECFPAQRVTLAQLLDPMVEAKYILTPVLWKYLYRYAKKHQARGNGFGYGMVYPNNPQSVTRTLSARYYKDGAEILIDRGWDMATGEKDFDDPLNQQHRPRRLTPRECARLMGFEAPGEAKFRIPVSDTQAYRQFGNSVVVPVFAAVAKLLEPKIKQAVALRQQEAQHGRRSREGHHHHHH,soluble
15,MSLENLKNIQPREDFNWEEFEAGGVHAAVSRQEQEAAYDKTLNTIKEKEVVMGRVTAINKREVVINVGYKSEGVVPATEFRYNPELKVGDEVEVYIENQEDKKGQLVLSHRKARAARSWERVNEALEKDEIVKGYVKCRTKGGMIVDVFGIEAFLPGSQIDVRPIRDYDAFVEKTMEFKIVKINQEYKNVVVSHKVLIEAELEQQKKEIIGKLEKGQVLEGIVKNITSYGVFIDLGGVDGLIHITDLSWGRVAHPEEIVQLDQKINVVILDFDEDRKRIALGLKQLMPHPWDALDSELKVGDKVKGKVVVMADYGAFVEIAQGVEGLIHVSEMSWTQHLRSAQDFLHVGDEVEAVILTLDREERKMSLGLKQLKPDPWADIETRFPVGSRHHARVRNFTNFGVFVEIEEGVDGLIHISDLSWTKKIKHPSEFTEVGADIEVQVIEIDKENRRLSLGHKQLEENPWDVFETVFTVGSIHEGTVIEVMDKGAVVSLPYGVEGFATPKHMVKEDGSQAVLEEKLPFKVIEFNKDAKRIIVSHSRVFEDEQKMAQREANAERKAEAKAAQKEAAAEAANPAQAVEKATLGDLGELAALKEKLSENEGHHHHHH,soluble
16,MASSLNEDPEGSRITYVKGDLFACPKTDSLAHCISEDCRMGAGIAVLFKKKFGGVQELLNQQKKSGEVAVLKRDGRYIYYLDWMWSLEHHHHHH,not soluble
17,MVLSQRQRDELNRAIADYLRSNGYEEAYSVFKKEAELDMNEELDKKYAGLLEKKWTSVIRLQKKVMELESKLNEAKEEFTSGGPLGQKRDPKEWIPRPPEKYALSGHRSPVTRVIFHPVFSVMVSASEDATIKVWDYETGDFERTLKGHTDSVQDISFDHSGKLLASCSADMTIKLWDFQGFECIRTMHGHDHNVSSVSIMPNGDHIVSASRDKTIKMWEVQTGYCVKTFTGHREWVRMVRPNQDGTLIASCSNDQTVRVWVVATKECKAELREHRHVVECISWAPESSYSSISEATGSETKKSGKPGPFLLSGSRDKTIKMWDVSTGMCLMTLVGHDNWVRGVLFHSGGKFILSCADDKTLRVWDYKNKRCMKTLNAHEHFVTSLDFHKTAPYVVTGSVDQTVKVWECR,soluble
18,MSLVENLFLEPQSKRRKINPETIESPSPNCNHWFVRNKICISCYTTVDNFEGRSFDYLYKGMQMSNEALGFTKGLISQTSWLEDKKLHLVLDLDQTLIHTIKTSLLYESEKYIIEEVESRKDIKRFNTGFPEESLIKLRPFVHQFLKECNEMFSMYVYTKGGYDYARLVLEMIDPDKFYFGNRVITRRESPGFKTLDLVLADERGIVIVDDTSSVWPHDKKNLLQIARYKYFGDKSCLFSEDKKKIDESDEKGPLNTALRFLKDVHEEFFYDWSKKDLDSVDVRPLLKEISLRWKRKADGVV,soluble
19,MKRILVVFLMLAIILAGCSNKGEKYQKDIDKVYKEQNQMNKIASKVQNTIKTDIKQEDSNTHVYKDGKVIVIGIQLYKDREKMYYFAYEIKDGKAEINREIDPIKYMKDHKADYEDENVEVEKDMAGDPLEHHHHHH,not soluble
20,MGSDKIHHHHHHMAAILPARITKVLPDSIAAEIGFEAGDALVAINGVQPRDLIDYKFLCSDEFLELEVLDASGKTHHIEIEKDYDEDLGLEFETALFDGLIQCNNRCPFCFIDQQPPGKRSSLYLKDDDYRLSFLYGSYLTLTNLPEREWQRIEQMRLSPLYVSVHATEPEVRIRLLKNQRAAQILDQLRWFQARRLQIHAQVVVCPGINDGKHLEQTLRDLASFHDGDVPTVASVAVVPVGLTRFRPEEDELIPVTREKAQEVIAQVRSLTQEFRRQFGSNVAWLADEWFLIAGEELPSEAEYEEYPQIDNGVGSIRLFLKQFAETAAELLPTKINHPKKLTWVVGNAVEKAFQPILKSLNAVEGLEINMCALSSDYWGQTISVTGLITGHDLLLHLKEQDLGGGILLPNVMLKHGELVFLDDMSVEEVAQKLHTKIIPIAGVKELIKTCITDSVSV,not soluble
